# Data as given in PMC10170517.
# How the values were obtained:
# Assay in all cases: potentiometry
# Settings in all cases: 298 K; 0.1 M NaClO4; metal-free peptide, random coil
# Glu7 (position 7, …) [1] = biological target: Glu7 (position 7, …)
# Glu7 (position 7, …) [2] = biological target: Glu7 (position 7, …); remark: listed apart in the source
# Glu7 (position 7, …) [3] = biological target: Glu7 (position 7, …); remark: listed apart in the source
# Glu7 (position 7, …) [4] = biological target: Glu7 (position 7, …); remark: listed apart in the source
protein,measurement,setting,value
DKPAKAEDHDHHQGHAH [GroEL1 C-terminal tail peptide L6 (H13Q mutant of L2) (Mycobacterium tuberculosis; H13Q)],pKa,"Glu7 (position 7, …) [1]",4.96
DKPAKAEDQDHHHGHAH [GroEL1 C-terminal tail peptide L3 (H9Q mutant of L2) (Mycobacterium tuberculosis; H9Q)],pKa,"Glu7 (position 7, …) [2]",4.74
DKPAKAEDHDHHHGQAH [GroEL1 C-terminal tail peptide L7 (H15Q mutant of L2) (Mycobacterium tuberculosis; H15Q)],pKa,"Glu7 (position 7, …) [1]",4.45
DKPAKAEDHDQHHGHAH [GroEL1 C-terminal tail peptide L4 (H11Q mutant of L2) (Mycobacterium tuberculosis; H11Q)],pKa,"Glu7 (position 7, …) [3]",4.71
DKPAKAEDHDHHHGHAQ [GroEL1 C-terminal tail peptide L8 (H17Q mutant of L2) (Mycobacterium tuberculosis; H17Q)],pKa,"Glu7 (position 7, …) [1]",4.44
DKPAKAEDHDHQHGHAH [GroEL1 C-terminal tail peptide L5 (H12Q mutant of L2) (Mycobacterium tuberculosis; H12Q)],pKa,"Glu7 (position 7, …) [4]",4.36
